Test system: MS2 coat protein
Test: apparent KD of MS2 coat protein; designed switch direction (-1 OFF switch, 1 ON switch): -1; higher = weaker reporter binding
Summary of the method: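 Each step of the titration lasted 0.8–1.5 h at the lowest concentration and 10–20 min at the highest. The protein, SNAP-549-labelled MS2 coat protein, went from 0.7 or 1.5 nM doubling to 3 µM over RNA switches transcribed on Illumina chips by stalled E. coli RNA polymerase. Normalised cluster fluorescence was curve-fitted, and the per-design median over clusters is given as apparent KD.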

[1] = input ligand: microRNA oligo, concentration not stated
[2] = Eterna round: R95, input ligand: microRNA oligo, concentration not stated
[3] = Eterna round: R95, input ligand: FMN 200 uM
[4] = Eterna round: R95, input ligand: none

AUAAAUAAUGCAGGAUAUGUCGGCGAAAGGCCGGCAGAAGGGCAGCGUGGAUGUAUCCUGAACAUGAGGAUCACCCAUGUGAAA [Ederisbi] (Eterna round: R96, puzzle: Exclusion NG 1)
apparent KD of MS2 coat protein (input ligand: FMN 200 uM): 209 nM
apparent KD of MS2 coat protein [1]: 168 nM
apparent KD of MS2 coat protein (input ligand: none): 347 nM

UAUCAUCAUGUAGGAUAUGCGUGGCAAAGCUAUGCAGAAGGACAUGAGGAUCACCCAUGUUCUAGCGUCUGCGUACAGAUGCUA [Mat - Exclusion NG 1 - Mod of JL - D74] (Eterna round: R96, puzzle: Exclusion NG 1)
apparent KD of MS2 coat protein (input ligand: FMN 200 uM): 247 nM
apparent KD of MS2 coat protein [1]: 45.2 nM
apparent KD of MS2 coat protein (input ligand: none): 68.7 nM

ACAUGAGGAUCACCCAUGUAAUGAAGGGUACUAUACUAAACGUAGGAUAUCGAUGUAAGAUUGAACGAGAAGGACGAUUGCCUU [JR_ExcNG3_Sub050] (Eterna round: R96, puzzle: Exclusion NG 3)
apparent KD of MS2 coat protein (input ligand: FMN 200 uM): 55.9 nM
apparent KD of MS2 coat protein [1]: 42 nM
apparent KD of MS2 coat protein (input ligand: none): 72.8 nM

UCUGUACAUCCCAAGCAUAACAUGAGGAUCACCCAUGUUGAACAAAACGUCGGUCCUGCUGCUCGUCGAAGGAAUAG [Eternabot (Original) Solution 8] (Eterna round: R97, puzzle: Sensor, turn-off variant 1)
apparent KD of MS2 coat protein (input ligand: FMN 200 uM): 47.4 nM
apparent KD of MS2 coat protein (input ligand: none): 47.5 nM

AAUAACAGAGGAUAUACUGUUUUAUGUGUUUAUUGUUUUGAACAUGAGGAUCACCCAUGUAGAAGGCUGAAUGA [JMF 66] (puzzle: Exclusion 2)
apparent KD of MS2 coat protein [2]: 23 nM

GGAAAACAUGAGGAUCACCCAUGUAAGGAUAUGCAAAAGGAUAUAGAAGGAAAAAAAAGCAGAAGGUACAAAGG [salish99-ex1-21] (Eterna round: R96, puzzle: Exclusion 1)
apparent KD of MS2 coat protein [1]: 34 nM

AGUAACUAUCACGAAAGUGAUAGUUACACAAGUAGUGAAACAUGAGGAUCACCCAUGUCCUCAUUUGCUCGUCUUAU [Sensor 3 - 33] (puzzle: Sensor v3, turn-off variant 2)
apparent KD of MS2 coat protein [3]: 461 nM
apparent KD of MS2 coat protein [2]: 168 nM
apparent KD of MS2 coat protein [4]: 925 nM

UGUUGGCGAGGAUAUACAUGAGGAUCACCCAUGUGAGAGAAAAAAGUGAGGAAGAAAAGUAGAAGGCGCUGACG [salish99_ex3_r3_043] (puzzle: Exclusion 3)
apparent KD of MS2 coat protein [3]: 209 nM
apparent KD of MS2 coat protein [2]: 40 nM
apparent KD of MS2 coat protein [4]: 45.4 nM

UUUGAUUGCACAGGAUAUUGUCAUUUGAGUUGUCAAGAAGGGUGUACAUGAGGAUCACCCAUGUUAUGCUUUCCUCGCUCACUU [JR_ExcNG1_Sub009] (Eterna round: R96, puzzle: Exclusion NG 1)
apparent KD of MS2 coat protein (input ligand: FMN 200 uM): 15.5 nM
apparent KD of MS2 coat protein [1]: 12.8 nM
apparent KD of MS2 coat protein (input ligand: none): 20 nM

GGGCCCGGAGGAUAUACAAUUCUGGGCUGAAAGGCUCGGGUACAUGAGGAUCACCCAUGUAGAAGGCCGGGCCC [-37.6, -34.7 kcal A 24%, 7bis-0] (Eterna round: R97, puzzle: Exclusion 2)
apparent KD of MS2 coat protein (input ligand: FMN 200 uM): 33.4 nM
apparent KD of MS2 coat protein (input ligand: none): 14.9 nM

GUUUUCAGACGGAGAUCCUACAUGAGGAUCACCCAUGUCUCACUUGUUUUUUGCUCGUCUUAUCCUCCUCUGUUCUC [Elimod 30 - Jieux - Sensor, turn-off variant 1] (Eterna round: R97, puzzle: Sensor, turn-off variant 1)
apparent KD of MS2 coat protein (input ligand: FMN 200 uM): 414 nM
apparent KD of MS2 coat protein (input ligand: none): 667 nM

GAGGAGCAAGGAUAUACGAGGAUAUGGUAGUUUGUAGAGUGACAUGAGGAUCACCCAUGUAGAAGGUGCGAGGG [JR_Exclu2_Sub099] (puzzle: Exclusion 2)
apparent KD of MS2 coat protein [2]: 41.7 nM

GAUCUGAUAGGAUAUACAUGAGGAUCACCCAUGUGCGAGCUAGCGAAAGCUAGCUCAGGUAGAAGGGUCAGAUC [Ex3 dot plot directed v2] (puzzle: Exclusion 3)
apparent KD of MS2 coat protein [2]: 11.7 nM

GCAGCAAAUUCCACUAAAACCACAUGAGGAUCACCCAUGUCUCAGGAUAUGGUCUGGAUUACAGGCCAGAAGGGAGAAAGCUGC [Eli exng3 - 056] (Eterna round: R96, puzzle: Exclusion NG 3)
apparent KD of MS2 coat protein (input ligand: FMN 200 uM): 12.3 nM
apparent KD of MS2 coat protein [1]: 9.52 nM
apparent KD of MS2 coat protein (input ligand: none): 14.8 nM

GCCCGGCCUGUAGGAUAUGGUUCCGUUUCGGUUCCAGAAGGACACGAGGAUACAUGAGGAUCACCCAUGUGCUCGUCACCGGGC [salish99_ExNG1_r04_403] (Eterna round: R96, puzzle: Exclusion NG 1)
apparent KD of MS2 coat protein (input ligand: FMN 200 uM): 8.67 nM
apparent KD of MS2 coat protein [1]: 8.6 nM
apparent KD of MS2 coat protein (input ligand: none): 11.3 nM

UCCUUACAUGAGGAUCACCCAUGUCAGGAUAUCUCCUCACUGCGCUUGCGCAGUGGAUAGAGAAGGGACGGGCU [JL ViennaUCT Aner mod 9] (puzzle: Exclusion 1)
apparent KD of MS2 coat protein [3]: 32.3 nM
apparent KD of MS2 coat protein [2]: 27.1 nM
apparent KD of MS2 coat protein [4]: 32.8 nM

CCGCUGCAAGGAUAUACUUGCGGUGGUGCUCGAGUUCUUCUACUUGAGGAUCACCCAAGUAGAAGGUGCAAAAC [jl-ex2.4.57 ViennaUCT mod] (Eterna round: R97, puzzle: Exclusion 2)
apparent KD of MS2 coat protein (input ligand: FMN 200 uM): 34.4 nM
apparent KD of MS2 coat protein (input ligand: none): 17.1 nM

AGUAACUAUCACGAAAGUGAUAGUUACAACAAGUGAUAAACAUGAGGAUCACCCAUGUCCUCAUUUGUUCGUCUUAU [Sensor 3 - 14] (puzzle: Sensor v3, turn-off variant 2)
apparent KD of MS2 coat protein [3]: 240 nM
apparent KD of MS2 coat protein [2]: 373 nM
apparent KD of MS2 coat protein [4]: 225 nM

CCUCAACAGGUCAGGAUAUACCCAACGGCGGACGGGUAGAAGGGACAUGAGGAUCACCCAUGUCCAGAGGUGAG [Eternabot (Original) Solution 11] (Eterna round: R97, puzzle: Brourd's mod of Exclusion 4)
apparent KD of MS2 coat protein (input ligand: FMN 200 uM): 45.5 nM
apparent KD of MS2 coat protein (input ligand: none): 16.9 nM

UACAUGAGGAUCACCCAUGUUUUGUCGUGUAUGGUAUUUAUCUAGGAUAUCAAUCUAUUUAAUUAUGAGAAGGAGAAUAUUAAU [JMF's solution 53] (Eterna round: R96, puzzle: Exclusion NG 3)
apparent KD of MS2 coat protein (input ligand: FMN 200 uM): 37.2 nM
apparent KD of MS2 coat protein [1]: 32.5 nM
apparent KD of MS2 coat protein (input ligand: none): 39.3 nM

GACCUAUAGGUAGGAUAUCAUUGCGAUUAGCUAUGAGAAGGACCACAUGAGGAUCACCCAUGUCCUCCAAUUAGCCAUUUGGUC [Fiskers ExNg1 - 7] (Eterna round: R96, puzzle: Exclusion NG 1)
apparent KD of MS2 coat protein (input ligand: FMN 200 uM): 196 nM
apparent KD of MS2 coat protein [1]: 47 nM
apparent KD of MS2 coat protein (input ligand: none): 58.3 nM

GUUUUGGGAGGAUAUAUGUGGAUAAUUUUUAUAUGAAAAUUACAUGAGGAUCACCCAUGUAGAAGGUCUAGAGC [-17.2, -15.1 kcal, 32% A] (Eterna round: R97, puzzle: Exclusion 2)
apparent KD of MS2 coat protein (input ligand: FMN 200 uM): 473 nM
apparent KD of MS2 coat protein (input ligand: none): 637 nM

AGUACUAACACGGGAGUGUUAGUACAAUAAGCUUGUGAAACAUGAGGAUCACCCAUGUCCUCAUAAGCUCGUCUUAU [salish99_TOv2_r3_060] (puzzle: Sensor v3, turn-off variant 2)
apparent KD of MS2 coat protein [3]: 16.6 nM
apparent KD of MS2 coat protein [2]: 717 nM
apparent KD of MS2 coat protein [4]: 13.8 nM

UAUAUAUAGUAAGGAUAUGUAUUUAUUUUGUAAACAGAAGGUACUGACAUGAGGAUCACCCAUGUUUUAGUGUGGGCAUGUAGA [JMF's solution 22] (Eterna round: R96, puzzle: Exclusion NG 1)
apparent KD of MS2 coat protein (input ligand: FMN 200 uM): 147 nM
apparent KD of MS2 coat protein [1]: 78.5 nM
apparent KD of MS2 coat protein (input ligand: none): 141 nM

GAUUGAGAAGGAUAUACAUGAGGAUCACCCAUGUGCUUCAGCUAGGAGACUAGCAUUGGUAGAAGGUCUUAAUC [Mod of lroppy 15 - Jieux - Exclusion 3] (Eterna round: R97, puzzle: Exclusion 3)
apparent KD of MS2 coat protein (input ligand: FMN 200 uM): 69.7 nM
apparent KD of MS2 coat protein (input ligand: none): 19.2 nM

CUCCUCGCUUAGGAUAUGUACACUUGCACCGUGACAGAAGGAAGCACUUGAGGAUCACCCAAGUGCCAGGGUGC [Geena] (Eterna round: R97, puzzle: Exclusion 6)
apparent KD of MS2 coat protein (input ligand: FMN 200 uM): 14.4 nM
apparent KD of MS2 coat protein (input ligand: none): 16.7 nM

CUUUUGUGAGGAUAUCAGUAGUAAAUAAAUAAUAUUACUACUGAGAAGGCACAUGAGGAUCACCCAUGUUCCUC [salish99_ex3_r3_083] (puzzle: Exclusion 4)
apparent KD of MS2 coat protein [2]: 42.3 nM

UUGUCGGCAGGAUAUACAUGAGGAUCACCCAUGUAAAUUUUUCGUUUAACUUGAAUGUGUAGAAGGGCCAUGUU [Ex3 #71] (Eterna round: R97, puzzle: Exclusion 3)
apparent KD of MS2 coat protein (input ligand: FMN 200 uM): 35.3 nM
apparent KD of MS2 coat protein (input ligand: none): 24.5 nM

AUGUACCGGUGAGGAUAUUUAUAAUAGAGCUUUAUGAUAUACAUGAGGAUCACCCAUGUUACUUUAAAGAAGGCAUCGGAUUAA [Mat - Exclusion NG 2 - Mod of JL - D91] (Eterna round: R96, puzzle: Exclusion NG 2)
apparent KD of MS2 coat protein (input ligand: FMN 200 uM): 15.3 nM
apparent KD of MS2 coat protein [1]: 15.3 nM
apparent KD of MS2 coat protein (input ligand: none): 21.2 nM

UUAUUGUUAGAGGAUAUAUUAAGGUAUGCUUUGAUAGAAGGCUAUACAUGAGGAUCACCCAUGUUUUUUGGGAU [JR_Ex6_Sub076] (Eterna round: R97, puzzle: Exclusion 6)
apparent KD of MS2 coat protein (input ligand: FMN 200 uM): 654 nM
apparent KD of MS2 coat protein (input ligand: none): 328 nM

CUGUACUGAGGAUAUACAUGAGGAUCACCCAUGUUCCAAGGCUAGGAAACUAGCAAAGGUAGAAGGCAGUACAG [Mat - Exclusion 3 - Eli Mod - D67] (Eterna round: R97, puzzle: Exclusion 3)
apparent KD of MS2 coat protein (input ligand: FMN 200 uM): 215 nM
apparent KD of MS2 coat protein (input ligand: none): 17.8 nM

UAACAAGCUUAAAGAUCCUACAUGAGGAUCACCCAUGUGCUCGUCUUGUAACGUACUGUGACGAAAGUCACGGUACG [JL TOV1 3.15] (Eterna round: R97, puzzle: Sensor, turn-off variant 1)
apparent KD of MS2 coat protein (input ligand: FMN 200 uM): 521 nM
apparent KD of MS2 coat protein (input ligand: none): 314 nM

ACAAGCUUGUAAUGAUUGAACAUGAGGAUCACCCAUGUAAAUGGAAGAACCAAUUGGAUAAGAUAAACUCGUCUUAU [JR_STOV1_Sub004] (Eterna round: R97, puzzle: Sensor, turn-off variant 1)
apparent KD of MS2 coat protein (input ligand: FMN 200 uM): 107 nM
apparent KD of MS2 coat protein (input ligand: none): 114 nM

Source: the supplement of paper PMC9170038
